In patent US20170101454A1 (Novo Nordisk, published 2017):
Starred links: 1 amine or outer side, 2 acyl side, 3 side chain; linkers in the order of their positions; H or OH if unused. Non-standard residues stand in square brackets, D forms with d. Groups on a side chain read outwards from the residue. No end group written: not given here. *: point of attachment. C18 diacid = O=C(O)CCCCCCCCCCCCCCCCC(=O)*; γGlu = O=C(O)[C@H](CCC(=O)[*:2])N[*:1]; Ac4c = NC1(C(=O)O)CCC1; AEEA = NCCOCCOCC(=O)O; Aib = CC(C)(N)C(=O)O

How the values were obtained:
human glucagon receptor [1] = biological target: T1, human glucagon receptor (human, UniProt P47871 26-477); experiment: cell-based or functional assay
human GLP-1 receptor [2] = biological target: T2, human GLP-1 receptor (human, UniProt P43220 24-463); experiment: cell-based or functional assay
human glucagon receptor [3] = biological target: T1, human glucagon receptor; experiment: displacement of [125I]-glucagon from BHK membranes with human glucagon receptor, SPA, no serum albumin
human GLP-1 receptor [4] = biological target: T2, human GLP-1 receptor; experiment: displacement of [125I]-GLP-1-(7-36)NH2 from BHK membranes with human GLP-1R, SPA, no serum albumin

T1 sequence (P47871 26-477): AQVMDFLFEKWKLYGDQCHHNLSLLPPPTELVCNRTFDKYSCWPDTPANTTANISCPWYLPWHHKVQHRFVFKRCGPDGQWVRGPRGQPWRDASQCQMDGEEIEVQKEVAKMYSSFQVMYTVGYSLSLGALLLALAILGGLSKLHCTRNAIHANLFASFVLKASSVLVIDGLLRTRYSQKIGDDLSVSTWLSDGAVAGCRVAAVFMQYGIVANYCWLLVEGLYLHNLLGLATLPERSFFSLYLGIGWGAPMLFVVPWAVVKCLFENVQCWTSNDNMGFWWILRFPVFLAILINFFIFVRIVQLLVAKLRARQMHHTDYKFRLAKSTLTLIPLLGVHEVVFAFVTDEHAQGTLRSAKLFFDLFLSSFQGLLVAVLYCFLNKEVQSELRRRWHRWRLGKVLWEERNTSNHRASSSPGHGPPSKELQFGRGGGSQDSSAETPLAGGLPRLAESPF

| Binder | GlucagonR EC50 (pM), [Assay (I)(b)], CRE luciferase reporter, BHK cells (human glucagon receptor [1]) | GLP-1R EC50 (pM) [Assay (I)(a)], CRE luciferase reporter, BHK cells (human GLP-1 receptor [2]) | IC50 (human glucagon receptor [3]) | IC50 (human GLP-1 receptor [4]) |
| --- | --- | --- | --- | --- |
| H[Aib]QGTFTSDLSKYLESRRARDFVQWLIK([AEEA-AEEA-γGlu-γGlu-γGlu-C18 diacid])T-NH2 (N-terminus assumed; SMILES CC[C@H](C)[C@H](NC(=O)[C@H](CC(C)C)NC(=O)[C@H](Cc1c[nH]c2ccccc12)NC(=O)[C@H](CCC(N)=O)NC(=O)[C@@H](NC(=O)[C@H](Cc1ccccc1)NC(=O)[C@H](CC(=O)O)NC(=O)[C@H](CCCNC(=N)N)NC(=O)[C@H](C)NC(=O)[C@H](CCCNC(=N)N)NC(=O)[C@H](CCCNC(=N)N)NC(=O)[C@H](CO)NC(=O)[C@H](CCC(=O)O)NC(=O)[C@H](CC(C)C)NC(=O)[C@H](Cc1ccc(O)cc1)NC(=O)[C@H](CCCCN)NC(=O)[C@H](CO)NC(=O)[C@H](CC(C)C)NC(=O)[C@H](CC(=O)O)NC(=O)[C@H](CO)NC(=O)[C@@H](NC(=O)[C@H](Cc1ccccc1)NC(=O)[C@@H](NC(=O)CNC(=O)[C@H](CCC(N)=O)NC(=O)C(C)(C)NC(=O)[C@@H](N)Cc1c[nH]cn1)[C@@H](C)O)[C@@H](C)O)C(C)C)C(=O)N[C@@H](CCCCNC(=O)COCCOCCNC(=O)COCCOCCNC(=O)CC[C@H](NC(=O)CC[C@H](NC(=O)CC[C@H](NC(=O)CCCCCCCCCCCCCCCCC(=O)O)C(=O)O)C(=O)O)C(=O)O)C(=O)N[C@H](C(N)=O)[C@@H](C)O, also called Chem. 3; Chem 3) | 245 pM | 2 pM | 31.6 nM | 0.1 nM |
| H[Aib]QGTFTSDYSKYLDLRRARDFVAWLIK([γGlu-γGlu-AEEA-AEEA-γGlu-C18 diacid])T-NH2 (N-terminus assumed; SMILES CC[C@H](C)[C@H](NC(=O)[C@H](CC(C)C)NC(=O)[C@H](Cc1c[nH]c2ccccc12)NC(=O)[C@H](C)NC(=O)[C@@H](NC(=O)[C@H](Cc1ccccc1)NC(=O)[C@H](CC(=O)O)NC(=O)[C@H](CCCNC(=N)N)NC(=O)[C@H](C)NC(=O)[C@H](CCCNC(=N)N)NC(=O)[C@H](CCCNC(=N)N)NC(=O)[C@H](CC(C)C)NC(=O)[C@H](CC(=O)O)NC(=O)[C@H](CC(C)C)NC(=O)[C@H](Cc1ccc(O)cc1)NC(=O)[C@H](CCCCN)NC(=O)[C@H](CO)NC(=O)[C@H](Cc1ccc(O)cc1)NC(=O)[C@H](CC(=O)O)NC(=O)[C@H](CO)NC(=O)[C@@H](NC(=O)[C@H](Cc1ccccc1)NC(=O)[C@@H](NC(=O)CNC(=O)[C@H](CCC(N)=O)NC(=O)C(C)(C)NC(=O)[C@@H](N)Cc1c[nH]cn1)[C@@H](C)O)[C@@H](C)O)C(C)C)C(=O)N[C@@H](CCCCNC(=O)CC[C@H](NC(=O)CC[C@H](NC(=O)COCCOCCNC(=O)COCCOCCNC(=O)CC[C@H](NC(=O)CCCCCCCCCCCCCCCCC(=O)O)C(=O)O)C(=O)O)C(=O)O)C(=O)N[C@H](C(N)=O)[C@@H](C)O, also called Chem. 33; Chem 33) | 8 pM | 7 pM | 6.9 nM | 2.3 nM |
| HXQGTFTSDYSRYLESRRARDFVQWLIKT (Acb at position 2; epsilon-N of Lys28 acylated with the substituent given in the name (17-carboxyheptadecanoyl-2xgGlu-Ado-gGlu-Ado-gGlu-Ado-gGlu-); C-terminal amide, also called Chem. 36; Chem 36) | 22 pM | 4 pM | 6.5 nM | 1.5 nM |
| H[Ac4c]QGTFTSDLSKYLESRRAQEFVQWLIK([γGlu-AEEA-AEEA-γGlu-γGlu-C18 diacid])T-NH2 (N-terminus assumed; SMILES CC[C@H](C)[C@H](NC(=O)[C@H](CC(C)C)NC(=O)[C@H](Cc1c[nH]c2ccccc12)NC(=O)[C@H](CCC(N)=O)NC(=O)[C@@H](NC(=O)[C@H](Cc1ccccc1)NC(=O)[C@H](CCC(=O)O)NC(=O)[C@H](CCC(N)=O)NC(=O)[C@H](C)NC(=O)[C@H](CCCNC(=N)N)NC(=O)[C@H](CCCNC(=N)N)NC(=O)[C@H](CO)NC(=O)[C@H](CCC(=O)O)NC(=O)[C@H](CC(C)C)NC(=O)[C@H](Cc1ccc(O)cc1)NC(=O)[C@H](CCCCN)NC(=O)[C@H](CO)NC(=O)[C@H](CC(C)C)NC(=O)[C@H](CC(=O)O)NC(=O)[C@H](CO)NC(=O)[C@@H](NC(=O)[C@H](Cc1ccccc1)NC(=O)[C@@H](NC(=O)CNC(=O)[C@H](CCC(N)=O)NC(=O)C1(NC(=O)[C@@H](N)Cc2c[nH]cn2)CCC1)[C@@H](C)O)[C@@H](C)O)C(C)C)C(=O)N[C@@H](CCCCNC(=O)CC[C@H](NC(=O)COCCOCCNC(=O)COCCOCCNC(=O)CC[C@H](NC(=O)CC[C@H](NC(=O)CCCCCCCCCCCCCCCCC(=O)O)C(=O)O)C(=O)O)C(=O)O)C(=O)N[C@H](C(N)=O)[C@@H](C)O, also called Chem. 38; Chem 38) | 12 pM | 2 pM | 2.7 nM | 0.3 nM |
| H[Aib]QGTFTSDYSKYLDARRARDFVAWLIK([γGlu-γGlu-AEEA-AEEA-γGlu-C18 diacid])T-NH2 (N-terminus assumed; SMILES CC[C@H](C)[C@H](NC(=O)[C@H](CC(C)C)NC(=O)[C@H](Cc1c[nH]c2ccccc12)NC(=O)[C@H](C)NC(=O)[C@@H](NC(=O)[C@H](Cc1ccccc1)NC(=O)[C@H](CC(=O)O)NC(=O)[C@H](CCCNC(=N)N)NC(=O)[C@H](C)NC(=O)[C@H](CCCNC(=N)N)NC(=O)[C@H](CCCNC(=N)N)NC(=O)[C@H](C)NC(=O)[C@H](CC(=O)O)NC(=O)[C@H](CC(C)C)NC(=O)[C@H](Cc1ccc(O)cc1)NC(=O)[C@H](CCCCN)NC(=O)[C@H](CO)NC(=O)[C@H](Cc1ccc(O)cc1)NC(=O)[C@H](CC(=O)O)NC(=O)[C@H](CO)NC(=O)[C@@H](NC(=O)[C@H](Cc1ccccc1)NC(=O)[C@@H](NC(=O)CNC(=O)[C@H](CCC(N)=O)NC(=O)C(C)(C)NC(=O)[C@@H](N)Cc1c[nH]cn1)[C@@H](C)O)[C@@H](C)O)C(C)C)C(=O)N[C@@H](CCCCNC(=O)CC[C@H](NC(=O)CC[C@H](NC(=O)COCCOCCNC(=O)COCCOCCNC(=O)CC[C@H](NC(=O)CCCCCCCCCCCCCCCCC(=O)O)C(=O)O)C(=O)O)C(=O)O)C(=O)N[C@H](C(N)=O)[C@@H](C)O, also called Chem. 32; Chem 32) | 7 pM | 2 pM | 0.9 nM | 0.3 nM |
| H[Aib]QGTFTSDLSKYLDVRRAQDFVQWLIK([γGlu-AEEA-AEEA-γGlu-γGlu-C18 diacid])T-NH2 (N-terminus assumed; SMILES CC[C@H](C)[C@H](NC(=O)[C@H](CC(C)C)NC(=O)[C@H](Cc1c[nH]c2ccccc12)NC(=O)[C@H](CCC(N)=O)NC(=O)[C@@H](NC(=O)[C@H](Cc1ccccc1)NC(=O)[C@H](CC(=O)O)NC(=O)[C@H](CCC(N)=O)NC(=O)[C@H](C)NC(=O)[C@H](CCCNC(=N)N)NC(=O)[C@H](CCCNC(=N)N)NC(=O)[C@@H](NC(=O)[C@H](CC(=O)O)NC(=O)[C@H](CC(C)C)NC(=O)[C@H](Cc1ccc(O)cc1)NC(=O)[C@H](CCCCN)NC(=O)[C@H](CO)NC(=O)[C@H](CC(C)C)NC(=O)[C@H](CC(=O)O)NC(=O)[C@H](CO)NC(=O)[C@@H](NC(=O)[C@H](Cc1ccccc1)NC(=O)[C@@H](NC(=O)CNC(=O)[C@H](CCC(N)=O)NC(=O)C(C)(C)NC(=O)[C@@H](N)Cc1c[nH]cn1)[C@@H](C)O)[C@@H](C)O)C(C)C)C(C)C)C(=O)N[C@@H](CCCCNC(=O)CC[C@H](NC(=O)COCCOCCNC(=O)COCCOCCNC(=O)CC[C@H](NC(=O)CC[C@H](NC(=O)CCCCCCCCCCCCCCCCC(=O)O)C(=O)O)C(=O)O)C(=O)O)C(=O)N[C@H](C(N)=O)[C@@H](C)O, also called Chem. 40; Chem 40) | 30 pM | 3 pM | 7.1 nM | 1.2 nM |
| HXQGTFTSDYSRYLESRRARDFVQWLIKT (Aib at position 2; epsilon-N of Lys28 acylated with the substituent given in the name (17-carboxyheptadecanoyl-2xgGlu-Ado-gGlu-Ado-gGlu-Ado-gGlu-); C-terminal amide, also called Chem. 37; Chem 37) | 98 pM | 4 pM | 6.6 nM | 1.5 nM |
| H[Aib]QGTFTSDVSKYLDARRAQDFVQWLIK([γGlu-AEEA-AEEA-γGlu-γGlu-C18 diacid])T-NH2 (N-terminus assumed; SMILES CC[C@H](C)[C@H](NC(=O)[C@H](CC(C)C)NC(=O)[C@H](Cc1c[nH]c2ccccc12)NC(=O)[C@H](CCC(N)=O)NC(=O)[C@@H](NC(=O)[C@H](Cc1ccccc1)NC(=O)[C@H](CC(=O)O)NC(=O)[C@H](CCC(N)=O)NC(=O)[C@H](C)NC(=O)[C@H](CCCNC(=N)N)NC(=O)[C@H](CCCNC(=N)N)NC(=O)[C@H](C)NC(=O)[C@H](CC(=O)O)NC(=O)[C@H](CC(C)C)NC(=O)[C@H](Cc1ccc(O)cc1)NC(=O)[C@H](CCCCN)NC(=O)[C@H](CO)NC(=O)[C@@H](NC(=O)[C@H](CC(=O)O)NC(=O)[C@H](CO)NC(=O)[C@@H](NC(=O)[C@H](Cc1ccccc1)NC(=O)[C@@H](NC(=O)CNC(=O)[C@H](CCC(N)=O)NC(=O)C(C)(C)NC(=O)[C@@H](N)Cc1c[nH]cn1)[C@@H](C)O)[C@@H](C)O)C(C)C)C(C)C)C(=O)N[C@@H](CCCCNC(=O)CC[C@H](NC(=O)COCCOCCNC(=O)COCCOCCNC(=O)CC[C@H](NC(=O)CC[C@H](NC(=O)CCCCCCCCCCCCCCCCC(=O)O)C(=O)O)C(=O)O)C(=O)O)C(=O)N[C@H](C(N)=O)[C@@H](C)O, also called Chem. 39; Chem 39) | 24 pM | 1 pM | 4.6 nM | 0.1 nM |
